A protein production outcome set (Wang et al. 2014)

Test: label from the status in PepcDB records

| Sequence | protein production |
| --- | --- |
| MKNKKYLQFGGIAAVILIVLFLVSLFSSDTRNFQEVDTSVAMAQLDAGNVAEAQIDDREQRVRLTLREPITVDEREGVEEILAQYPARTAPAIFEKVEASNTDSYTTNVTQESFLMSMLSFILPMVIIFGLLMFFLTRMQGGGMFGIGGSKAKQLTKDMPTNTFADVAGAEEAVDELHEIKDFLEDPTRYEALGAKIPRGVLLYGPPGTGKTLLARAVAGEAGVPFYSISGSDFVEMFVGVGASRVRDLFKQAKENSPCIIFVDEIDAVGRARGSGMGGGHDEREQTLNQLLVEMDGFGDRQGVILMAATNRPDVLDPALLRPGRFDRQIPVTNPDLRGREQILEVHAKGKPFAPDADIKALAKRTAGMSGADLANVLNEAALLTARVGGNVITADALEEATDRVVGGPRRSGKVISEKEKKVTAYHEGGHTLSAWALEDIERVYKVTILARGRTGGHAMTAQEDDKGMYNRNELFARLVFAMGGRSAEELVFGEPTTGASADIEMATKIARSMVTEYGMSPAVGMVKYGQEQGDPFSGRGGGGNLDHSQEVAATIDTEVQFLLDKAHEVSYSILAEYRDHLDRLAEKLLEKETLRRPDLEALFDDIVPRKVAEVFPDESTRFPRQENREPVKTPVELALERGEEPPKKFSILEASRATRERRRKELEAQGKLPVQPASSAGVAPAAGAAAGSYGTPPPADWSVPGSAGKHRSRAEEQPAEQGFPAQTPAQAPEQSPDSSGGRPNPYATPTASGEHPGMKAYGFGDSELMDQSTGAEHTPGNVSQESPTEMIGFRLPDHERSDYPEKAQKESVLDASETTEMPVVPDQPIDGDSGKSAEGTQENPENEGDNRG | failed |
| MKNLVVVDHPLIKHKLTIMRDKNTGPKEFRELLREITLLLAYEATRHLKCEEVEVETPITKTIGYRINDKDIVVVPILRAGLVMADGILELLPNASVGHIGIYRDPETLQAVEYYAKLPPLNDDKEVFLLDPMLATGVSSIKAIEILKENGAKKITLVALIAAPEGVEAVEKKYEDVKIYVAALDERLNDHGYIIPGLGDAGDRLFRTK | not failed |
| MKNPQSKADDILQCARTLIIRGGYNSFSYADISQVVGIRNASIHHHFPSKSDLVCKLVSQYRQEAEAGIAELEKNISDPLEQLRAYIGYWEGCIADATHPFCVCALLASEIPVLPETVVLEVRAHFRSLSDWLTAVLERGIAQGRLVLTGTARANAEIFMATVHGAMLSARAHGDAATFGAITRPMLERITA | not failed |
| MKNRIWSAAMAAGLLVAAATSAQAEPVMQGRDAYGDWQSDRPGTVRLIRPQDLVKPGATRSVASFARVVPRPSDASPQVPPGFKIELFAEGLRAPRIVRVAPNGDVFVAETRAGTIRVLRAGEGGKVAANEVFASGLRQPFGVAFFPNGDNPQWVYVANTDSVVRFPYQAGDLKARSKAEKIVASLPHDGGHSTRDIVFTPDNKRMLVSVGSLSNVAEGMGTPPGGMDAWSKTQPLGAAWASETERATVLAFTPDGKERKIYATGIRNCVGLAIQSQTGLPWCSTNERDGLGDDLVPDYVTSVKEGAFYGWPWFYIGGNEDPRHAGARPDLKDRVTIPDVLIQPHSASLGMTFYEGTQFPSDYQGDAFAAEHGSWNRSKRTGYKVIRIRMKDGKPTGEYEDFVTGFVLSDTEVWGRPVGVAVAKDGALLISEDGNGTIWRVSHP | failed |
| MKPILALLSLLALPVMAAEPTLYGRYENIKVLEIGQTFKAKMDTGALTASLSAKDIELFQRDGDDWVRFRLATKGADDKVYEHKVSRISKIKGRAEGDDEDDEGINPAKRPVVDLELCLGNKKRTVEVNLVDRSHFNFPLLIGAKALREFGAAINPARRYTADEPDC | not failed |
| MKPLEQAINDNKKKKRFNFRMPGAFMILFILTVVAVIATWIIPAGAYSKLSYEPSSQELKIVNPHHQVKKVPGTQKELDRLGVKIKIEQFKSGAINKPVSIPNTYERLKQHPAGLDQITSSMVKGTIEAVDIMVFILVLGGLIGVVQASGSFESGLLALTQKTKGHEFMLIAFVSILMIIGGTLCGIEEEAVAFYPVLVPIFIALGYDSIVSVGAIFLASSVGSTFSTINPFSVVIASNAAGTTFTDGLYWRIGACIIGAIFVISYLFWYCKKIKKDPKSSYSYEDKAAFEKQWSVLHDDGSSEFTLRKKIILTLFVLPFPIMVWGVMTQGWWFPVMASVFLIFTIIIMFIAGTGQYGLGEKGTVDAFVNGASSLVGVSLIIGLARGINLVLNKGMISDTILHFSSSIVQHMSGPLFIIVLLFIFFCLGFIVPSSSGLAVLSMPIFAPLADTVGIPRFVIVTTYQFGQYAMLFLAPTGLVMATLQMLNMRYSHWLRFVWPVVAFVLIFGGGLLITQVLIYS | failed |
| MKPPSAIMETALYADDLDAAEAFYRDVFGLEMVLKLPGQLVFFKCGRQMLLLFDPQESSRADANNPIPRHGAVGQGHFCFYADDKAEVDEWKTRFEALEIPVEHYHRWPNGSYSVYIRDPAGNSVEVGEGKLWGFE | not failed |
| MKPRDINKLIASKIFGYEIKDDNIIKDGRYRLGIPLYSQNIESAWQVVEKLEYDVKVTKTDLKPKYQVHVFVPGGVKMVFAETAPMAICKGALASVDIELQD | not failed |
| MKPRIYVKVKPERLGAVIGPRGEVKAEIMRRTGTVITVDTENSMVIVEPEAEGIPPVNLMKAAEVVKAISLGFPPEKAFRLLEEDQILVVVDLKQVVGDSQNHLKRIKGRIIGEGGRARRTIEEMTDTYINVGEYEVAIIGDYERAMAAKQAIEMLAEGRMHSTVYRHLERIMREIKRRERLKMWAREEL | not failed |
| MKPRVEILMSTYNGEKFLAEQLDSILAQTHQYFVLTVRDDGSKDGTPDILSRYAATDERITYCVQENRGVVGSFYWLLKNSSPLSNYVAFSDQDDVWLPNKLERALDVLSRYDETLPLLYCSRVEYVSAGLGHLDDSPMMVRPVCLNNALIQNVATGCTVVMNKAARDLLLEREWPPQVLMHDWWSYIVVSAFGKVVYDDFVSIKYRQHGGNVIGGTVSFVSDYRSRIINFLSRRRKGVFGCYDQAYSFWLGYKDELKGESRGIVSQFIESKRSFLSRLNYLTSSQRVYRHRFIDDVLVRLLILSNKYLEHHHHHH | failed |
| MKPSHQQQKQASAAKDEKKDIIPLSAEKADGAEGWLNNSTILYTASNPTKTELFPYRIFTGKAKKLYQTDGQIVDVQINAREQMILLQITHSQKTAVVLLNAEGETLYEKDYETYELEAAWNQYDPYQMMVTEFNENWDFHTYQVNAKKDESFLSPVQVPFIHWTSKNTFDYVKEGRDDKTGPLYTFDTASKTEQKLEDNVLFFDSFHQMSFTVKSASGGKGTYQFKTPQSTSPVTAKWPLQAKYTSLAPMEYDYDEAGSLFYTFKQSGDAYKLAAINVASGETKDLVSLREMEPIQISPNGKYALYGFHFEQIILLKSHETKQLIIDQKEMELEHHHHHH | failed |
| MKPSKYSVKAQGHGSSYMPMEVTLSKDKIEDINVDASGETRGVADEVFNRLPKLIVDNQTLNIDAVSGATISSHGVIDGVAQTINEAGGNSEEWKRRAKPRKVLLKKTKNMILMLEHHHHHH | not failed |
| MKQARRHCWRRGIAATLIGGVISRRGTRASIGRDGLQLRFAALPWRTRCVAAAFCRFVKRSTRTPRARQESAVGLATLDIVIVLVYLTGIFVLAQWVSREKAGHSKSAEDYFLASKSLPWWAIGASLIAANISAEQIIGMAGSGYAIGLAIASYEWMAALTLLIVGKFFLPIFLRNGIYTMPQFLEQRYGKWIRTLMAVFWLLLYVFVNLTSILWLGSIAVSQVTGMDQTLALALIGVFALVYQLYGGLKAVALTDIVQVTLLVLGGLLVAALTLARIGDGAGVLEGFQHLWNAHPEHFHMILTKDNPFYKDLPGLSVLLGGLWVMNISYWGFNQYIIQRALAAKNIGEAQKGMVFAAFLKLLMPLVIVVPGIAAVVLAPDLAKPDQAYPTMMQLLPTGMLGLVFAALVAAIVASLASKINSVATIFTLDFYAKFRPQTEQKQLVRVGRIVAAVSVLIGILTARPLLGNFDQGFQFIQEFTGFFTPGVVVIFMLGLFWKRANEAGALTAAIGSVVLSFVLKFAWPELPFMDRIGVVFVAALMLAVLVSLLTPATQARDLIRTNEVAYGTTLSFKIGAAGVIAILIVLYTVFW | failed |
| MKQHILVLEDANQRRTIILDEQQYSIGRHSGTSIQIHSRQASRHHATLMRKTNSKTNEECFWIIDGDLEGNKSQNGVFVNGEKRLIHELKNGDLINFGCSINALEHHHHHH | failed |
| MKQKLLVTLLGLSALGASPVFAANTNVDLAEDAYIYGYSIDEAYKFFYHTAVENNYPLNEFQNRRALADDSYTAHPTINNDTLHLMGWLDVAAEPVIVSVPDMDEGRYWILHTMDMGHYTNAAFSSRTRGTKGGQFMFAAQDWQGEVPASVDEVVRVDSNLVKLMGRIMAVNDEDAKVALNYMDQWNIRTLSEYLGKNGPKPVQRTYPDPKKSTWLERVNFVLCDGSMGNADKQWLDKYQSIGVEPCKTDFTPEQLKLAKVGEKKGMEHLVELAPKMTDARTLLGTRDTLGDAPRDIFAEGTYLGQWGLPPIEASYRKSDFDSIGQKLDGSKHDYVMRFKAPNVSEFWSVTIYGNDNRLMAKNDLNRHSRGDRTMKADKDGYYTIYMSANEKGRADDPNFLPVPEKPFYAIMRFYGADDAIQSGEYQMPEIKVVKLEHHHHHH | not failed |
| MKQKLLYLCLFVTLAVVGHSYIIYRFIHDGVLFTGPNDGMEQMVPIQMYLFDNWHHGNFFYASDFGLGGDFFSDLSYYFSTNIIFIINVIVIVLLKTFITLDTTHIMFWMTNALIVSIFKSAIAMLATYLYVRYIALNKKIAVLAAFIFVISPIYFRFTVYWPFFSDVFIWLPLLLWSIERFLKSGKIGFFIIIVAITLINNFYFAYYQLLTGLIYLTIRLVFRHQADIIPRFKSFMSLFIASVIGLGCSLPFFFPAIQSFFNNRRTPFDGNVDLFEPFNQNTNVFYDNYLIVILFITGQALLSFKLYKHYYFKLFAISTLILICASFVPFIDQIFNGFSAPQKRWHYLIAFNSAVLIGLYVKYFRTISIPNYIFSSVISLSIIGLSAWYYDDVVAWVWFAPIVSLIGFLILLINESHIKLKLTHLFVLSIMILTVLVSTVFIRNQIYFEDHVKRANAYFVNASLFNTPLQQQLVKDMNTHKLEDERIDWRVNEQDNTPMYQQFKGLSIYSSIFDHHILDFYYDELKINMQEESVSRYQSTNGRQNMSSLFSIKYLMVKRYQHNIPAYFKKIKNDGQYEIYENTLNLPSVRVSNKKYNSNDLHNPIDKEHAMMDGVILNNKGASYTAKAPNLLNQTRITYKDIDNKRNHQIHASKNDSHVQIHIPKHLRQRYHDFYLTIKVKRGLPDSNFSVQINNYTNNRLYNNSTYRTGVDTQLYRTQPDKNGNINVGLSPTGNYYLDIQSLHGENYNHLKSAYAKQNNDGHYTDIKNGVKVKLGPHEKGIATINIPYREGMTAYVDNKKIKPLNVNYMMTGVPVSKDSKEIIIKYRPKYWYTVTAISIIFIIGSLSWFMRKRYKNK | failed |
| MKQLSFNKLYFEGIKDAIPISIGYLPIGMAFGVLAKSMGIPYEISILMSLIIFAGASQFVGVNLIAIGTSSFEIVLTTFILNLRHFLMSSSLSQRIDYTKSKKFLSLISFGVTDETFAVASLKEELKLSPEFLFGLNFTAFFAWNFGTVLGIFLAESIPKEIQSSMGISLYVMFIGLLIPAVRRSTKVLKIFLVAVFISSALTWVPVFKFISTGWIIIITTIVASFIGAKFIHGDGDE | failed |
